This is an account of results in US20250049939A1 (TUBULIS, published 2025).

Experiment [1] deals with T1, rat FLT3 expressed on Ba/F3 cells (rat, UniProt A0A0G2JW59 27-982).
T1 construct: whole, on cells
T1 sequence: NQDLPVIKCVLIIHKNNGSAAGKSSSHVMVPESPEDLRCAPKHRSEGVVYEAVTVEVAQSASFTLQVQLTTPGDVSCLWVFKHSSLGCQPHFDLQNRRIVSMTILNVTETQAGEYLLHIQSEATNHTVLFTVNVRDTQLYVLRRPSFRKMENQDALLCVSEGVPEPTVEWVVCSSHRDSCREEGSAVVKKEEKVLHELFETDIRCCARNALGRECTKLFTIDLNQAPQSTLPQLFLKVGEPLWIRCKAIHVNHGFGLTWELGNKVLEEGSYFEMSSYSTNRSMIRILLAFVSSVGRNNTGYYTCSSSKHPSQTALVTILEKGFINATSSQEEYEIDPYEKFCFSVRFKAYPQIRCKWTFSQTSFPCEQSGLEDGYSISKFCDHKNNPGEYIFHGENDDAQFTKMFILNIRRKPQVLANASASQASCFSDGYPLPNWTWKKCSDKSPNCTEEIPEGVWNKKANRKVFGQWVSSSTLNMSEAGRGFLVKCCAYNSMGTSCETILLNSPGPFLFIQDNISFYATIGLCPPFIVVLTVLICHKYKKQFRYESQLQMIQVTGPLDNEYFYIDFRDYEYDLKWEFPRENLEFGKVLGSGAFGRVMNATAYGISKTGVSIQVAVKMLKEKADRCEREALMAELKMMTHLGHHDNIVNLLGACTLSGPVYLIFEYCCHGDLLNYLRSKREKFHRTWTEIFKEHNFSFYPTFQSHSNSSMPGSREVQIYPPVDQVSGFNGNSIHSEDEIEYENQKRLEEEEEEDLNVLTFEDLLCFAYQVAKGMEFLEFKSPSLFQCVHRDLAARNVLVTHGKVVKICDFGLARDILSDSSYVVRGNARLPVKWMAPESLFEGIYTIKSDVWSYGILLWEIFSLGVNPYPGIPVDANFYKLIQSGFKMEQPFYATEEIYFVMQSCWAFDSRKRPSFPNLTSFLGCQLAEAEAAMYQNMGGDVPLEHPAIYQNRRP
The experiment can be described thus: flow cytometry, cell surface binding to Ba/F3 pMIY cells expressing rFLT3wt, MFI ratio normalized to IgG1, mean ± s.d. of n=3. In general terms: A flow cytometer gives signals particle by particle.

A further experiment deals with T2, VEGFR-2 on Ba/F3 cells (UniProt P35968 20-1356, limits assumed).
T2 construct: whole, on cells
The experiment can be described thus: flow cytometry, cell surface binding to Ba/F3 pMIY cells expressing VEGFR, MFI ratio normalized to IgG1, mean ± s.d. of n=3.

The target of experiment [2] is T3, recombinant human FLT3 protein (human, UniProt P36888 27-541).
T3 construct: also called recombinant FLT3 protein; human recombinant FLT3 protein (10445-H08H, Sino Biological)
T3 sequence: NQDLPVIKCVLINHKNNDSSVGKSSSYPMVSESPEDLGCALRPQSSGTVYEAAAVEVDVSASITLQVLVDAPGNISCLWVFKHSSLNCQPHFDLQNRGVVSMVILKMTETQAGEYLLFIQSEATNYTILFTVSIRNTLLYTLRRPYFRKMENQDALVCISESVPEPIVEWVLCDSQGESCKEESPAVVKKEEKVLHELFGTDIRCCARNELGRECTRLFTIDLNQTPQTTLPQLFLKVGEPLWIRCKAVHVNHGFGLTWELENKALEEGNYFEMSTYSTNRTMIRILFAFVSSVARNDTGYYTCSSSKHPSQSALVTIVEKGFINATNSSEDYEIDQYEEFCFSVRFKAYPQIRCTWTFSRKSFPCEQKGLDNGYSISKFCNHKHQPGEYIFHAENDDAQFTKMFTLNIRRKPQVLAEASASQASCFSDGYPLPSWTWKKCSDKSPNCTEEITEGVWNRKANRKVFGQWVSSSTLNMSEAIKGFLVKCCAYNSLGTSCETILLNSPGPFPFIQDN
The experiment can be described thus: ELISA with recombinant human FLT3 coated to the plate (results of FIG. 13 summarized). The method, then: Maxisorp plates were coated with human recombinant FLT3 protein (10445-H08H, Sino Biological). […] For detection, Attophos Fluorescent Substrate System (S1000, Promega) was applied. The fluorescence was read with excitation of 405 nm and emission at 500-550 nm. The calculation of the dissociation constant KD was performed using GraphPad Prism version 9.4.0.
The 12 clones were subsequently analysed in ELISA assays (FIG. 13). Therefore, recombinant human FLT3 was coated on plates and incubated with the antibody candidates. […] Mean±s.d. of n=3 biological replicates.
For orientation: In an ELISA, binding on a coated surface is turned into a signal by an enzyme label.

In experiment [3] the target is T4, human CD64 (high affinity Fc receptor, FCGR1) on cells (human, UniProt P12314 16-374).
T4 construct: whole, on cells; also called hCD64; human FCGR1
The experiment can be described thus: flow cytometry, cell surface binding to Ba/F3-pMIY cells expressing CD64, specific MFI, mean ± s.d. of n=3.

T2 sequence (P35968 20-1356 limits assumed): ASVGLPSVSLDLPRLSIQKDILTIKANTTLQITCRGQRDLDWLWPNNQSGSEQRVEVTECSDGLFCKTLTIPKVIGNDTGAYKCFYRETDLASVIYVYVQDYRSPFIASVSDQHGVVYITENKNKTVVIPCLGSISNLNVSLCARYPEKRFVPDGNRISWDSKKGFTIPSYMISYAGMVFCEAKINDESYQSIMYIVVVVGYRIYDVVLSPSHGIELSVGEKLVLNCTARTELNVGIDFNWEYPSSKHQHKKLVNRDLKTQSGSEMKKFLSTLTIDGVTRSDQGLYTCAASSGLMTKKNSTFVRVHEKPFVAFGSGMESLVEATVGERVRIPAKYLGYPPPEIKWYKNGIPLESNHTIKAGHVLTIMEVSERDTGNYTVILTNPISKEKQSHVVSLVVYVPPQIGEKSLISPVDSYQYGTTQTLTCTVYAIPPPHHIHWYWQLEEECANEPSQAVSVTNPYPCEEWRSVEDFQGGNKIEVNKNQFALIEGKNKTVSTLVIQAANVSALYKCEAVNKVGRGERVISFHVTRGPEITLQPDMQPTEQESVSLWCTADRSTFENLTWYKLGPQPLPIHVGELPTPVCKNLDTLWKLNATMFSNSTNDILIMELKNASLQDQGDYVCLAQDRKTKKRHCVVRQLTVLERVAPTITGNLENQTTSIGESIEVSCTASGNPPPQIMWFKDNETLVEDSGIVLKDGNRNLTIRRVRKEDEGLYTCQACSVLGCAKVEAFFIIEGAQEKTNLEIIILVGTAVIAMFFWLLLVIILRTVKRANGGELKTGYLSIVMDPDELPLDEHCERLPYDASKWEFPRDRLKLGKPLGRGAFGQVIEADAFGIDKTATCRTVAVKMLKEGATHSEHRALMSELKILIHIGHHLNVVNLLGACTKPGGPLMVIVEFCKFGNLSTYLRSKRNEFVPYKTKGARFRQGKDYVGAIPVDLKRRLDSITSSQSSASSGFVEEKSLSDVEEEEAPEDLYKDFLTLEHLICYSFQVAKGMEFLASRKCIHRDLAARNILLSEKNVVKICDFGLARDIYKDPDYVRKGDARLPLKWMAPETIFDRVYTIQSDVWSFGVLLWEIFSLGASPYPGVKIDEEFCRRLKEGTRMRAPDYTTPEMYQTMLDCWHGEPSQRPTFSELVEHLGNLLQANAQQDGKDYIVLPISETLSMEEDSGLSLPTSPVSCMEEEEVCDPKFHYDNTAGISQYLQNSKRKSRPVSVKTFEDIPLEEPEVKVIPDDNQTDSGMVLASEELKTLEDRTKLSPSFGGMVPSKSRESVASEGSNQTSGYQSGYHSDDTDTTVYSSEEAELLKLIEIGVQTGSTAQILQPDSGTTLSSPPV
T4 sequence (P12314 16-374): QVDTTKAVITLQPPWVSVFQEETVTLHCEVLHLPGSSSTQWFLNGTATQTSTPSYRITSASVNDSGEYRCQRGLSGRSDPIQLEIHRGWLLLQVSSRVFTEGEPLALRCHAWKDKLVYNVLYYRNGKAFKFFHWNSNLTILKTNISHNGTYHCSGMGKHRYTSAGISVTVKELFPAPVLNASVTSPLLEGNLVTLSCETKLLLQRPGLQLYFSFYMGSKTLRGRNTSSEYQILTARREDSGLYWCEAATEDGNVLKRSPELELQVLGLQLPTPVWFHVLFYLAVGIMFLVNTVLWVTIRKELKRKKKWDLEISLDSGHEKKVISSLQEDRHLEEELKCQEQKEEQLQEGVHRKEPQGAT

B1: Humanized clone 3 of 20D9 (VH3 + VK1) (antibody, human IgG1, kappa)
heavy: not shown
light: DIQMTQSPSVLSASVGDRVTINCRASQNINKELNWYQQKLGEAPKLLIYNTNNLQSGVPSRFSGSGSGTDYTLTISSLQPEDVATYFCFQHKSWPLTFGSGTKLEIKRTVAAPSVFIFPPSDEQLKSGTASVVCLLNNFYPREAKVQWKVDNALQSGNSQESVTEQDSKDSTYSLSSTLTLSKADYEKHKVYACEVTHQGLSSPVTKSFNRGEC
notes: also called candidate #3; #3 mab
As for B1, the binding result is recorded as “no binding” in experiment [1], “no binding” with VEGFR-2 on Ba/F3 cells and “binds” in experiment [3]. Also, the Kd (in general, the free concentration of one partner at which half of the binding sites on the other are occupied at equilibrium, for simple one-to-one binding) in experiment [2] amounted to 0.0113 µg/mL.
